{
  "source": "patent US20020110883",
  "proteins": {"B1": {"name": "Kip3A 353 protein (protein)", "chain": "MAVEDSTLQVVVRVRPPTPRELDSQRRPVVQVVDERVLVFNPEEPDGGFPGLKWGGTHDGPKKKGKDLTFVFDRVFGEAATQQDVFQHTTHSVLDSFLQGYNCSVFAYGATGAGKTHTMLGREGDPGIMYLTTVELYRRLEARQQEKHFEVLISYQEVYNEQIHDLLEPKGPLAIREDPDKGVVVQGLSFHQPASAEQLLEILTRGNRNRTQHPTDANATSSRSHAIFQIFVKQQDRVPGLTQAVQVAKMSLIDLAGSERASSTHAKGERLREGANINRSLLALINVLNALADAKGRKTHVPYRDSKLTRLLKDSLGGNCRTVMIAAISPSSLTYEDTYNTLKYADRAKEIRLKGNSKLEGKPIPNPLLGLDSTRTGHHHHHH"}},
  "target": "microtubules",
  "data": [
    {"protein": "B1", "values": [
      {"measurement": "Km for microtubule stimulation (coupled PK/LDH ATPase assay, Michaelis-Menten fit)", "result": "Km for microtubule stimulation of 4.6 ug/ml"},
      {"measurement": "Vmax of microtubule-stimulated ATPase (coupled PK/LDH ATPase assay, Michaelis-Menten fit)", "result": "Vmax 0.85 uM ADP/s"},
      {"measurement": "kcat of microtubule-stimulated ATPase (from Vmax)", "result": "corresponds to a kcat value of 15s^-"}
    ]}
  ]
}
